6 molecules from US20220227866A1 (VELOSBIO, published 2022) can be followed below.

“And” between values parts separate entries of the source, which are not always exact repeats. Identical values can stand only once.

Assay [1] deals with T1, soluble biotinylated human ROR1 extracellular domain (human, UniProt Q01973 30-406, biotinylated with EZ-Link Sulfo-NHS-LC-Biotin at a 1:5 molar ratio).
T1 construct: Acro Biosystems cat; whole entry named; also called b-ROR1; soluble b-ROR1
The experiment in a line: ELISA, captured construct, biotinylated ROR1 titrated. Here is the method:
To measure the binding of bispecific constructs to soluble ROR1, a 96-well Costar-3366 plate was coated with 50 μL/well of 2 μg/mL goat anti-human kappa (Southern Biotech cat. #2060-01) in PBS overnight at 4° C. The plate was rinsed once with PBS-T, blocked with 100 μL/well 5% M-P for 1 h at 25° C., rinsed once with PBS-T, and 2 μg/mL of the bispecific binding molecule was added and incubated for 1 h at 25° C. The plate was washed three times with PBS-T. Biotinylated ROR1 was diluted serially, 3-fold in 5% M-P and was incubated for 1 h at 25° C. (50 μL/well). The plate was washed three times with PBS-T. To detect the binding of b-ROR1, 50 μL/well Neutravidin-HRP (Pierce cat. #31030) diluted 1:5000 in 1% BSA-PBS was added for 1 h at 25° C. The plate was washed three times with PBS-T, then developed with 50 μL/well 1-Step Ultra TMB-ELISA (Thermo Scientific cat. #34028). The reaction was terminated by the addition of 2 N H₂SO₄ and the A450 was determined using a Spectramax plate reader.
The stronger binding observed with bivalent constructs versus monovalent constructs in cell assays and ELISAs in which the antigen is immobilized is consistent with an avidity effect. To determine if this was the case, binding to soluble monomeric ROR1 was assessed by immobilizing the bispecific binding molecules on a microtiter plate coated with goat anti-human kappa antibody and titrating biotinylated RORL. All bispecific binding molecules were active in this format (FIG. 7), and in most cases, there were no notable differences between monovalent and bivalent constructs.
(In general: An ELISA detects its analyte on a solid surface through an enzyme-linked reagent.)

The target in assay [2] is human ROR1 on cells (human, UniProt Q01973 30-937). The experiment in a line: cell-based or functional assay.
Assay [3] has as its target T2, human CD3 on Jurkat cells (human, UniProt P09693 23-182; P04234 22-171; P07766 23-207).
T2 construct: GenBank NP_000064.1, NP_000723.1, NP_000724.1
The assay is described as follows: flow cytometry on Jurkat cells. Here is the method: To quantitate CD3 binding, 2.5E5 Jurkat cells were used for each condition. A 2× stock of the cells was made by resuspending the cells to 5E6/mL by placing in 50 μL of PBS with 2% FBS. Next, the cells were diluted with an equal volume of 2× stock of the test bispecific binding molecule. The cells and antibody were co-incubated on ice for 20 min. The cells were then washed 3 times with 300 μL of FACS buffer and were resuspended in 100 μL of goat anti-human Fc-PE conjugate antibody (Invitrogen cat. #12499882) at 1:500 dilution and incubated on ice with reduced light for 20 min. The cells were then washed 3 times with 300 μL of FACS buffer and fixed with 2% paraformaldehyde for 10 min at 25° C. The cells were washed 2 times with 300 μL of FACS buffer and analyzed on a Miltenyi MACSQuant Analyzer.
(In general: Flow cytometry measures light scatter and fluorescence of single cells or particles in a stream.)

T1 sequence (Q01973 30-406 limits assumed): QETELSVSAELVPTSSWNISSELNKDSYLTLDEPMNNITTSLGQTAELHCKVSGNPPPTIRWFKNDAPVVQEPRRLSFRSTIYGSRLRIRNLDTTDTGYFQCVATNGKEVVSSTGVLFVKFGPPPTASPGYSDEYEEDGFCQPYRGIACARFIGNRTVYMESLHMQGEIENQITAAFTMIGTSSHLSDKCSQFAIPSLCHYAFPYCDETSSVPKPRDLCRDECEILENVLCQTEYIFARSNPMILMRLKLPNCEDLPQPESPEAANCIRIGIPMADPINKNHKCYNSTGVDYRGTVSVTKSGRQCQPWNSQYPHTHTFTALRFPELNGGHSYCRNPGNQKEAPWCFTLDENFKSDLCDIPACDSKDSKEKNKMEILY
T2 sequence (P09693 23-182 limits assumed, chain 1 of 3): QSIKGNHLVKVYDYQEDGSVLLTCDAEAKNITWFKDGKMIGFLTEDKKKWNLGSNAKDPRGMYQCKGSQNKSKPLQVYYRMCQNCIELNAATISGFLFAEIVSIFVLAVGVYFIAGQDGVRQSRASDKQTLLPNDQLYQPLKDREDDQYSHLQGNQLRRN
T2 sequence (P04234 22-171 limits assumed, chain 2 of 3): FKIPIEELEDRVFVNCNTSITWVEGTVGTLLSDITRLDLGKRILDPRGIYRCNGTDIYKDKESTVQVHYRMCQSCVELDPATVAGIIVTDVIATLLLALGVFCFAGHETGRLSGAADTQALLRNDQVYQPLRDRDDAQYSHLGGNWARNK
T2 sequence (P07766 23-207 limits assumed, chain 3 of 3): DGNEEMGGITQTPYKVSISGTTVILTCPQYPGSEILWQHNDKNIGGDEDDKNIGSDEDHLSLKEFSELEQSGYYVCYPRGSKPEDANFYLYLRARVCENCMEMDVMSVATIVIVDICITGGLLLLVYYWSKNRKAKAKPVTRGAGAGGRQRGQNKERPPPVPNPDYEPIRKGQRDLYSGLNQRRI
Chain of human ROR1 on cells (Q01973 30-937 limits assumed): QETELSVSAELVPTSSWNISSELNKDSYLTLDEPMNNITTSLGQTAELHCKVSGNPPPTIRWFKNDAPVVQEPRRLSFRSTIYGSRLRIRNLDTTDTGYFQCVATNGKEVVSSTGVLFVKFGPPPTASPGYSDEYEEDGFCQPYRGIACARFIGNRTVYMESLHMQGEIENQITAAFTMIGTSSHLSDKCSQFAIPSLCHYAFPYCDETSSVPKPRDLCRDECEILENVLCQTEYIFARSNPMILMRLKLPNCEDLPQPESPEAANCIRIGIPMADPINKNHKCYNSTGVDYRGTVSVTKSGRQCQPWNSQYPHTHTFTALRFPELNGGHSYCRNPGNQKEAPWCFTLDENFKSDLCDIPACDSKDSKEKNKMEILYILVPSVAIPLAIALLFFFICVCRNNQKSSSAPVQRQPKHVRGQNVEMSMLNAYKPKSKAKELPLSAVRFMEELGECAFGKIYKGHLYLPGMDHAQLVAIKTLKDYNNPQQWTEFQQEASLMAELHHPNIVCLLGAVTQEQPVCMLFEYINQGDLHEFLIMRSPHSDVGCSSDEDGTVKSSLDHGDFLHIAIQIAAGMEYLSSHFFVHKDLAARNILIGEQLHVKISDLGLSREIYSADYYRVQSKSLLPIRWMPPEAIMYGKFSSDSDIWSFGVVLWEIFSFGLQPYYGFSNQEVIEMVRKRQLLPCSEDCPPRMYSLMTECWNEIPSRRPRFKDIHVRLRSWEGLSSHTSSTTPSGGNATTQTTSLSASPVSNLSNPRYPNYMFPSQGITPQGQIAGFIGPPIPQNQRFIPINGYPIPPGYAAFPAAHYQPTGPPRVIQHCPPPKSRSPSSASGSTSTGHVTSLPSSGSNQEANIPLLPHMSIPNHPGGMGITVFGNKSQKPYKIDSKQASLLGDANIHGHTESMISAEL

B1: Bispecific construct 20 (bispecific antibody, human IgG1, kappa)
heavy: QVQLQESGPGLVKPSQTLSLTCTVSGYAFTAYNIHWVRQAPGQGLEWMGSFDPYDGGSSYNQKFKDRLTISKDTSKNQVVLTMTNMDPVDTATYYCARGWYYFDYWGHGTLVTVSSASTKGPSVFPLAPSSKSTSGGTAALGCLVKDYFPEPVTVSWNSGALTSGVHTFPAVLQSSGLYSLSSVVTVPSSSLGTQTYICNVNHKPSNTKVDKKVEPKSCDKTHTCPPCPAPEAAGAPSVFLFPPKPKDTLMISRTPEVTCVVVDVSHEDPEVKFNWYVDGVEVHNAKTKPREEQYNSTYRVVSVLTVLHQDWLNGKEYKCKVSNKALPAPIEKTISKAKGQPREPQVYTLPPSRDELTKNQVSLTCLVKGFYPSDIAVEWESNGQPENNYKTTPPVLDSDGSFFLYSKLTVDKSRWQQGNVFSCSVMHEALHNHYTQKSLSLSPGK
light: EVQLVESGGGLVQPGGSLRLSCAASGFTFNTYAMNWVRQAPGKGLEWVARIRSKYNNYATYYADSVKGRFTISRDDSKNTLYLQMNSLRAEDTAVYYCVRHGNFGNSYVSYFAYWGQGTTVTVSSGGGGSGGGGSGGGGSGGGGSEIVVTQSPATLSVSPGERATLSCRSSTGAVTAANYANWVQEKPGQAFRGLIGGANKRAPGVPARFSGSLSGDEATLTISSLQSEDFAVYYCALFYSNLWVFGQGTKLEIKGGGGSGGGGSDIVMTQTPLSLPVTPGEPASISCRASKSISKYLAWYQQKPGQAPRLLIYSGSTLQSGIPPRFSGSGYGTDFTLTINNIESEDAAYYFCQQHDESPYTFGEGTKVEIKRTVAAPSVFIFPPSDEQLKSGTASVVCLLNNFYPREAKVQWKVDNALQSGNSQESVTEQDSKDSTYSLSSTLTLSKADYEKHKVYACEVTHQGLSSPVTKSFNRGEC
notes: valency 2/2
Regarding B1, the Kd (in general, the constant that tells how readily two partners part at equilibrium) in assay [1] was determined as 0.366 nM. Further, in assay [2], the “EC50, LDH release, ROR1-transfected MEC” value was 1.8 ng/mL and 9 pM; the “Max. LDH Release, ROR1-transfected MEC” value is 37%.

B2: Bispecific construct 16 (bispecific antibody, human IgG1, kappa)
heavy 1: not shown
heavy 2: EVQLVESGGGLVQPGGSLRLSCAASGFTFNTYAMNWVRQAPGKGLEWVARIRSKYNNYATYYADSVKGRFTISRDDSKNTLYLQMNSLRAEDTAVYYCVRHGNFGNSYVSYFAYWGQGTTVTVSSGGGGSGGGGSGGGGSGGGGSEIVVTQSPATLSVSPGERATLSCRSSTGAVTAANYANWVQEKPGQAFRGLIGGANKRAPGVPARFSGSLSGDEATLTISSLQSEDFAVYYCALFYSNLWVFGQGTKLEIKEPKSSDKTHTCPPCPAPEAAGAPSVFLFPPKPKDTLMISRTPEVTCVVVDVSHEDPEVKFNWYVDGVEVHNAKTKPREEQYNSTYRVVSVLTVLHQDWLNGKEYKCKVSNKALPAPIEKTISKAKGQPREPQVYTLPPSRDELTKNQVSLSCAVKGFYPSDIAVEWESNGQPENNYKTTPPVLDSDGSFFLVSKLTVDKSRWQQGNVFSCSVMHEALHNHYTQKSLSLSPGK
light: DIVMTQTPLSLPVTPGEPASISCRASKSISKYLAWYQQKPGQAPRLLIYSGSTLQSGIPPRFSGSGYGTDFTLTINNIESEDAAYYFCQQHDESPYTFGEGTKVEIKRTVAAPSVFIFPPSDEQLKSGTASVVCLLNNFYPREAKVQWKVDNALQSGNSQESVTEQDSKDSTYSLSSTLTLSKADYEKHKVYACEVTHQGLSSPVTKSFNRGEC
notes: anti-CD3 scFv Ab10; valency 1/1
For the molecule B2, the Kd in assay [1] is 0.057 nM. In addition, the binding result in assay [3] was “binds”.

B3: Bispecific construct 19 (bispecific antibody, human IgG1, kappa)
heavy 1: not shown
heavy 2: EVQLVESGGGLVQPGGSLRLSCAASGFTFNTYAMNWVRQAPGKGLEWVARIRSKYNNYATYYADSVKGRFTISRDDSKNTLYLQMNSLRAEDTAVYYCVRHGNFGNSYVSYFAYWGQGTTVTVSSGGGGSGGGGSGGGGSGGGGSEIVVTQSPATLSVSPGERATLSCRSSTGAVTAANYANWVQEKPGQAFRGLIGGANKRAPGVPARFSGSLSGDEATLTISSLQSEDFAVYYCALFYSNLWVFGQGTKLEIKGGGGSGGGGSQVQLQESGPGLVKPSQTLSLTCTVSGYAFTAYNIHWVRQAPGQGLEWMGSFDPYDGGSSYNQKFKDRLTISKDTSKNQVVLTMTNMDPVDTATYYCARGWYYFDYWGHGTLVTVSSASTKGPSVFPLAPSSKSTSGGTAALGCLVKDYFPEPVTVSWNSGALTSGVHTFPAVLQSSGLYSLSSVVTVPSSSLGTQTYICNVNHKPSNTKVDKKVEPKSCDKTHTCPPCPAPEAAGAPSVFLFPPKPKDTLMISRTPEVTCVVVDVSHEDPEVKFNWYVDGVEVHNAKTKPREEQYNSTYRVVSVLTVLHQDWLNGKEYKCKVSNKALPAPIEKTISKAKGQPREPQVYTLPPSRDELTKNQVSLSCAVKGFYPSDIAVEWESNGQPENNYKTTPPVLDSDGSFFLVSKLTVDKSRWQQGNVFSCSVMHEALHNHYTQKSLSLSPGK
light: DIVMTQTPLSLPVTPGEPASISCRASKSISKYLAWYQQKPGQAPRLLIYSGSTLQSGIPPRFSGSGYGTDFTLTINNIESEDAAYYFCQQHDESPYTFGEGTKVEIKRTVAAPSVFIFPPSDEQLKSGTASVVCLLNNFYPREAKVQWKVDNALQSGNSQESVTEQDSKDSTYSLSSTLTLSKADYEKHKVYACEVTHQGLSSPVTKSFNRGEC
notes: CD3 valency 1, ROR1 valency 2
For B3, the Kd in assay [1] is 0.2 nM.

B4: Bispecific construct 17 (bispecific antibody, human IgG1, kappa)
heavy 1: not shown
heavy 2: EVQLVESGGGLVQPGGSLRLSCAASGFTFNTYAMNWVRQAPGKCLEWVARIRSKYNNYATYYADSVKGRFTISRDDSKNTLYLQMNSLRAEDTAVYYCVRHGNFGNSYVSYFAYWGQGTTVTVSSGGGGSGGGGSGGGGSGGGGSEIVVTQSPATLSVSPGERATLSCRSSTGAVTAANYANWVQEKPGQAFRGLIGGANKRAPGVPARFSGSLSGDEATLTISSLQSEDFAVYYCALFYSNLWVFGCGTKLEIKEPKSSDKTHTCPPCPAPEAAGAPSVFLFPPKPKDTLMISRTPEVTCVVVDVSHEDPEVKFNWYVDGVEVHNAKTKPREEQYNSTYRVVSVLTVLHQDWLNGKEYKCKVSNKALPAPIEKTISKAKGQPREPQVYTLPPSRDELTKNQVSLSCAVKGFYPSDIAVEWESNGQPENNYKTTPPVLDSDGSFFLVSKLTVDKSRWQQGNVFSCSVMHEALHNHYTQKSLSLSPGK
light: DIVMTQTPLSLPVTPGEPASISCRASKSISKYLAWYQQKPGQAPRLLIYSGSTLQSGIPPRFSGSGYGTDFTLTINNIESEDAAYYFCQQHDESPYTFGEGTKVEIKRTVAAPSVFIFPPSDEQLKSGTASVVCLLNNFYPREAKVQWKVDNALQSGNSQESVTEQDSKDSTYSLSSTLTLSKADYEKHKVYACEVTHQGLSSPVTKSFNRGEC
notes: disulfide-stabilized anti-CD3 scFv Ab10; valency 1/1
For B4, the dissociation constant (Kd) in assay [1] was 0.068 nM. Also, the binding result in assay [3] is “binds”.

B5: Bispecific construct 18 (bispecific antibody, human IgG1, kappa)
heavy: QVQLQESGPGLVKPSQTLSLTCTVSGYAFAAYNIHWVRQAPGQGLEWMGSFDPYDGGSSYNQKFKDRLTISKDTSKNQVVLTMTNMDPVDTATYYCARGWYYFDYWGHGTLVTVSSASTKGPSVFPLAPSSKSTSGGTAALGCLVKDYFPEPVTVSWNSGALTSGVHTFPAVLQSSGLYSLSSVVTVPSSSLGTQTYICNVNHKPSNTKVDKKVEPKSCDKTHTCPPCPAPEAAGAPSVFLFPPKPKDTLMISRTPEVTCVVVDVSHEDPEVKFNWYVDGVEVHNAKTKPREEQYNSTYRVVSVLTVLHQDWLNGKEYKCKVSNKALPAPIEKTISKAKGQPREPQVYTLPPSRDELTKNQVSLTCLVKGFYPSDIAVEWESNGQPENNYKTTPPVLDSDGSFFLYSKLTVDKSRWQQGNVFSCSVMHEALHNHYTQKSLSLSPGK
light: DIVMTQTPLSLPVTPGEPASISCRASKSISKYLAWYQQKPGQAPRLLIYSGSTLQSGIPPRFSGSGYGTDFTLTINNIESEDAAYYFCQQHDESPYTFGEGTKVEIKRTVAAPSVFIFPPSDEQLKSGTASVVCLLNNFYPREAKVQWKVDNALQSGNSQESVTEQDSKDSTYSLSSTLTLSKADYEKHKVYACEVTHQGLSSPVTKSFNRGECGGGGSGGGGSEVQLVESGGGLVQPGGSLRLSCAASGFTFNTYAMNWVRQAPGKGLEWVARIRSKYNNYATYYADSVKGRFTISRDDSKNTLYLQMNSLRAEDTAVYYCVRHGNFGNSYVSYFAYWGQGTTVTVSSGGGGSGGGGSGGGGSGGGGSEIVVTQSPATLSVSPGERATLSCRSSTGAVTAANYANWVQEKPGQAFRGLIGGANKRAPGVPARFSGSLSGDEATLTISSLQSEDFAVYYCALFYSNLWVFGQGTKLEIK
notes: anti-CD3 scFv Ab10; valency 2/2
For B5, in assay [1], the Kd turned out to be 0.048 nM. For the same molecule, the binding result in assay [3] is given as “binds”. Besides, in assay [2], the “EC50, LDH release, ROR1-transfected MEC” value was 3.5 ng/mL and 17 pM; the “Max. LDH Release, ROR1-transfected MEC” value was determined as 34%.

B6: control 1 (bispecific antibody)
polypeptide, role not told 1: QLVLTQSPSASASLGSSVKLTCTLSSGHKTDTIDWYQQQPGKAPRYLMKLEGSGSYNKGSGVPDRFSGSSSGADWYLTISSLQSEDEADYYCGTDYPGNYLFGGGTQLTVLGGGGSGGGGEVQLVESGGGLVQPGGSLRLSCAASGFTFSTYAMNWVRQAPGKGLEWVGRIRSKYNNYATYYADSVKGRFTISRDDSKNSLYLQMNSLKTEDTAVYYCVRHGNFGNSYVSWFAYWGQGTLVTVSSASTKGEVAACEKEVAALEKEVAALEKEVAALEKGGGDKTHTCPPCPAPEAAGGPSVFLFPPKPKDTLMISRTPEVTCVVVDVSHEDPEVKFNWYVDGVEVHNAKTKPREEQYNSTYRVVSVLTVLHQDWLNGKEYKCKVSNKALPAPIEKTISKAKGQPREPQVYTLPPSREEMTKNQVSLWCLVKGFYPSDIAVEWESNGQPENNYKTTPPVLDSDGSFFLYSKLTVDKSRWQQGNVFSCSVMHEALHNHYTQKSLSLSPGK
polypeptide, role not told 2: QAVVTQEPSLTVSPGGTVTLTCRSSTGAVTTSNYANWVQQKPGQAPRGLIGGTNKRAPWTPARFSGSLLGGKAALTITGAQAEDEADYYCALWYSNLWVFGGGTKLTVLGGGGSGGGGQEQLVESGGGLVQPGGSLRLSCAASGFTFSDYYMSWIRQAPGKGLEWVATIYPSSGKTYYADSAKGRLTISSDNAKDSLYLQMNSLRAEDTAVYYCTRDSYADDAALFDIWGQGTTVTVSSASTKGKVAACKEKVAALKEKVAALKEKVAALKE
polypeptide, role not told 3: not shown
On to B6, for which, in assay [3], the binding result is recorded as “binds”.
